# Measured values taken from PMC7001585 (Proteins, 2017).
# B1: CepR2 ligand binding domain (CepR2-LBD, 1-170) (domain or fragment)
# chain: SNAMDLTILHDCFDALQRAPTAEAAFPPIAAAAAALGFRYCVYGLRRTLPLARPDMQIVGNHPREWEHRYVKFGYVTIDPIIKRVASQPRPVVWNAFDEPGDTAFWHDAACFGMRYGWSHGGYDRAGNLGVLTLVRDTTPLDADEISRLRAPCASLSHAAHAYLMPRLADPIA
# modifications: selenomethionine (SeMet-substituted protein; SeMet53 named)
# Molecular target: the molecule itself
# Assay: crystal structure
protein,measurement,value
B1,stoichiometry N,2
